The target in assay [1] is NaV1.4 CTerm Short (residues 1599–1754), freed of CaM for ITC (human) (UniProt P35499). The assay can be described thus: ITC; Ca2+-saturating: CTerm (2–25 µM) in the sample cell, CaM, CaM12 or CaM34 (30–1000 µM) as titrant; 20 mM MOPS, 150 mM NaCl, 1 mM MgCl2, 50 µM EGTA with 1 mM CaCl2; VP-ITC, single binding site fit, one replicate. (In general: In ITC the heat of successive injections is recorded.)

The target in assay [2] is NaV1.5 CTerm Long (not stated (human or rat cDNA cloned)). The assay is described as above.
In assay [3] the target is NaV1.4 CTerm Long (residues 1599–1764), freed of CaM for ITC (human) (UniProt P35499). The description is as above.
The target in assay [4] is NaV1.5 CTerm Long (not stated (human or rat cDNA cloned)). Kind of assay: ITC; Ca2+-free: CTerm (2–25 µM) in the sample cell, CaM (30–1000 µM) as titrant; 20 mM MOPS, 150 mM NaCl, 1 mM MgCl2, 50 µM EGTA; VP-ITC, single binding site fit, one replicate.
For assay [5] the target is unchanged. The assay can be described thus: ITC; Ca2+-saturating: CTerm (2–25 µM) in the sample cell, CaM, CaM12 or CaM34 (30–1000 µM) as titrant; 20 mM MOPS, 150 mM NaCl, 1 mM MgCl2, 50 µM EGTA with 1 mM CaCl2; VP-ITC, single binding site fit, one replicate. This is another data set of the same source.

With “CaM12 (D20A, D56A; N lobe Ca^2+ binding disabled) (natural protein)”, the Kd (commonly the constant that tells how readily two partners part at equilibrium) in assay [1] amounted to 0.156 µM; in assay [2], 3.6 µM; in assay [3] it was 0.154 µM.

In the case of “CaM34 (D93A, D129A; C lobe Ca^2+ binding disabled) (natural protein)”, the Kd was found to be 0.282 µM in assay [1], 0.09 µM in assay [2] and 0.121 µM in assay [3].

Regarding “calmodulin (full-length mammalian calmodulin, R. norvegicus CALM2) (from UniProt P0DP30 1-149) (natural protein)”, the Kd in assay [4] worked out at 0.048 µM; in assay [2], 0.089 µM; in assay [5], 0.07 µM.

(Values after article PMC6447637.)
